{
  "source": "paper PMC7164637",
  "biological_target": "2019-nCoV spike (S) glycoprotein, prefusion-stabilized ectodomain (residues 1-1208, two stabilizing proline mutations) (2019-nCoV)",
  "experiment": "cryo-EM structure",
  "data": [
    {"substance": "2019-nCoV spike (S) glycoprotein, prefusion-stabilized ectodomain (residues 1-1208, two stabilizing proline mutations) (domain or fragment)", "values": [
      {"measurement": "stoichiometry N", "value": 3}
    ]}
  ]
}
